T1: recombinant protein containing hST2 extracellular domain with mouse antibody heavy chain Fc tag (hST2-ECD-mFc) (human)
T1 construct: Used for SPR and for ELISA of chimeric and humanized antibodies; also called human ST2 antigen
T1 chain: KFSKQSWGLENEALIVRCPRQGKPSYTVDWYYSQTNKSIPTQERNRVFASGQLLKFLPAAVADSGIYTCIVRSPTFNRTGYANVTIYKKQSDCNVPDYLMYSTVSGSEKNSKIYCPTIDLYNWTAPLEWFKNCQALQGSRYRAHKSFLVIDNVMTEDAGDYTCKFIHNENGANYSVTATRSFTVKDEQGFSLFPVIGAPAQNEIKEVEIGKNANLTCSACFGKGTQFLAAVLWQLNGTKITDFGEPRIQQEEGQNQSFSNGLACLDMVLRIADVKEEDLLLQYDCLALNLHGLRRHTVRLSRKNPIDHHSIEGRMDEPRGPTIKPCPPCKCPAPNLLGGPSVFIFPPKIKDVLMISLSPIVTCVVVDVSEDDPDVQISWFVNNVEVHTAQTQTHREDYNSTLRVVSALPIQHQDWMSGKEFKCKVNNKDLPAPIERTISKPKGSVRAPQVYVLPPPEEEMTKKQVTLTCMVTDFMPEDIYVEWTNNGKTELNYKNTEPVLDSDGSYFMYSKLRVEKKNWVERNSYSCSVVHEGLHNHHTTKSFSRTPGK

T2: cynomolgus monkey ST2 antigen (Cyno-ST2-his, Sino biological, 90915-C08H) (cynomolgus monkey, UniProt Q01638 19-328 (human entry))
T2 construct: Bought protein; not shown: his tag
T2 chain: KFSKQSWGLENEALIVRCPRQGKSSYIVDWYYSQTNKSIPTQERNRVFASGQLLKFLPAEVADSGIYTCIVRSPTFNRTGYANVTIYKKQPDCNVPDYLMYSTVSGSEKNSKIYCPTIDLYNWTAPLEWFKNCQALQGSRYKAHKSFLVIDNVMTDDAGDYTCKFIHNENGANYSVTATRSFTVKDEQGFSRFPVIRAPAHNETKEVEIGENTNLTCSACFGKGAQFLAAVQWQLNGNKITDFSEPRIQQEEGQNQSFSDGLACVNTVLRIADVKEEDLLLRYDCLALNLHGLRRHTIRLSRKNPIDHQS


What was measured:
[1] = target: T1, recombinant protein containing hST2 …; test: ELISA, plate coated with hST2-ECD-mFc, antibody not heated
Procedure: The anti-ST2 antibodies were diluted with PBS buffer to a concentration of 1.5 mg/mL. […], the samples were assayed by ELISA for their binding activity for an antigen The ELISA procedure is as follows: A 96-well plate was coated with 2 µg/mL hST2-ECD-mFc as the antigen at 100 µL/well and incubated at 4° C. overnight. After the antigen not adsorbed was well washed off, the non-specific binding sites were blocked with a blocking buffer (PBST containing 1% bovine serum albumin). After the plate was washed three times with a washing buffer (PBST, PBS containing 0.05% (v/v) Tween 20), the anti-ST2 antibodies (serially diluted 3-fold from an initial concentration of 1.5 µg/mL to 8 concentrations) were added at 100 µL/well, and the plate was incubated at 37° C. for 1 h. […] After the plate was incubated at room temperature for 5 min, a stop solution (2 N H₂SO₄) was added to stop the reactions. The signals were read at 450 nm using a plate reader (PE, Envision). The data were analyzed using GraphPad Prism5, and the EC₅₀ values were calculated.

[2] = target: T2, cynomolgus monkey ST2 antigen …; test: SPR (Biacore T200), Cyno-ST2-his captured by anti-his antibody on CM5, antibody as analyte, 1:1 model
Procedure: The reaction signals were detected in real time using a Biacore instrument (Cytiva, BiacoreT200), and then an association-dissociation curve was obtained. After the completion of dissociation in each cycle, the biochip was regenerated with a regeneration solution for the next capture; the procedure was repeated until the affinity of the different antibodies for ST2 was determined. The acquired data were finally analyzed using the GE BIAevaluation software with a 1:1 (Langmuir) binding model to determine the association rate constants ka (kon) and the dissociation rate constants kd (koff), and the dissociation constants KD were given by KD = kd/ka. The determined affinity of the anti-ST2 antibody for human ST2 antigen (hST2-ECD-mFc), cynomolgus monkey ST2 antigen (Cyno-ST2-his, Sino biological, 90915-C08H) and the determined affinity of the anti-ST2 chimeric antibodies for ST2 were shown in Table 5.
The humanized antibodies hz31C81-1.1 (the amino acid sequence of the heavy chain set forth in SEQ ID NO: 75 and the amino acid sequence of the light chain set forth in SEQ ID NO: 81) and hz31C8-1.2 (the amino acid sequence of the heavy chain set forth in SEQ ID NO: 77 and the amino acid sequence of the light chain set forth in SEQ ID NO: 81) were subjected to affinity, binding, blocking and cell function analyses using the methods described in Example 4, Example 5, Example 6, Example 7, Example 8, Example 9 and Example 10. In the present disclosure, “hz” and “xi” denote humanized antibodies and chimeric antibodies, respectively; for example, “hz31C81-1.1” and “hz31C81-1.2” represent humanized 31C81-1.1 and 31C81-1.2 antibodies, and “xi31C8” represents a chimeric 31C8 antibody.

EC50 [1] [pM] | Kd [2] [pM] | Binder
74.4 | 1620 | Chimeric 31C8 (antibody, human IgG2, kappa, V domains shown, also called xi31C8) VH: QVQLQQSGPELVRPGASVTLSCKASGYIFIDSEMHWVKQTPVHGLEWIGAIDPETGDTVYNQKFKGKATLTADKSSSTASMELSSLTSEDSAVYYCTGSTTDYYFAYWGQGTTLTVSS VL: DIVMTQAAFSNPVTLGTSASISCRSSKSLLHSNGIIYLYWYLQKPGQSPQLLIYQMSNLASGVPDRFSSSGSGTDFTLRISRVEAEDVGVYYCAQNLELPFTFGSGTKLEIKR
109 | 92.3 | GSK3772847 (antibody STLM208 in CN104411333, prepared in-house) (antibody, human IgG2, kappa, V domains shown, Control anti-ST2 antibody) VH: EVQLLESGGGLVQPGGSLRLSCAASGFTFSIYDMIWVRQAPGKGLEWVSSIRGEGGGTYYADSVKGRFTISRDNSKNTLYLQMNSLRAEDTAVYYCARDPWSTEGSFFVLDYWGQGTLVTVSS VL: EIVLTQSPATLSLSPGERATLSCRASQSVDDDLAWYQQKPGQAPRLLIYDASNRATGIPARFSGSGSGTDFTLTISSLEPEDFAVYYCQQYITAPLTFGQGTKVEIKR
90.6 | 2470 | Humanized 31C8-1.1 (antibody, human IgG2, kappa, V domains shown, also called hz31C8-1.1; hz31C81-1.1) VH: EVQLVQSGAEVKKPGATVKISCKASGYIFIDSEMHWVQQAPGKGLEWMGAIDPETGDTVYAEKFQGRVTITADKSSSTAYMELSSLRSEDTAVYYCTGSTTDYYFAYWGQGTLVTVSS VL: DIQMTQSPSSLSASVGDRVTITCRSSKSLLHSNGIIYLYWYQQKPGKAPKLLIYQLSNLASGVPSRFSSSGSGTDFTLTISSLQPEDFATYYCAQNLELPFTFGQGTKVEIKR
92 | 5270 | Humanized 31C8-1.2 (antibody, human IgG2, kappa, V domains shown, also called hz31C8-1.2; hz31C81-1.2) VH: QVQLVQSGAKVKKPGATVKISCKASGYIFIDSEMHWVQQAPGKGLEWMGAIDPETGDTVYAKKFKGRVTITADKSSSTAYMELSSLRSEDTAVYYCTGSTTDYYFAYWGQGTLVTVSS VL: DIQMTQSPSSLSASVGDRVTITCRSSKSLLHSNGIIYLYWYQQKPGKAPKLLIYQLSNLASGVPSRFSSSGSGTDFTLTISSLQPEDFATYYCAQNLELPFTFGQGTKVEIKR
143 | 69 | RG6149 (antibody Ab2 in CN104334582, prepared in-house) (antibody, human IgG2, kappa, V domains shown, Control anti-ST2 antibody) VH: EVQLVQSGAEVKKPGESLKISCKGSGYSFTNYWIGWVRQMPGKGLEWMGIIYPGNSDTRFSPSFQGQVTISADKSITTAYLQWSSLKASDTAMYYCARHGTSSDYYGLDVWGQGTTVTVSS VL: not shown

Source: patent publication US20230272086A1 (CHIA TAI TIANQING PHARMACEUTICAL GROUP, published 2023)
